Data: patent US20120316071A1 (published 2012)

T1: rHuman Erythropoietin R/Fc Chimera, CF (R&D Systems Cat#963-ER) (human, UniProt P19235 25-250)
T1 construct: Bought recombinant protein; also called EPO R; EPO R/Fc; Fc part of the bought chimera not given
T1 sequence (looked up): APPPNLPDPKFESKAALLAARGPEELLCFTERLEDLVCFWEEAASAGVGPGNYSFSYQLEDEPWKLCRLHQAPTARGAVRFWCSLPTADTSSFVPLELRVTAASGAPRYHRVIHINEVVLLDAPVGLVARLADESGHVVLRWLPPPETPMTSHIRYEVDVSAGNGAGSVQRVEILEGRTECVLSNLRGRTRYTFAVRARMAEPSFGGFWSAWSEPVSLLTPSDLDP

T2: rHuman Erythropoietin R/Fc Chimera, CF (R&D Systems Cat#963-ER) (human, UniProt P19235 25-250)
T2 construct: Bought recombinant protein; also called EPO R/Fc; Epo R; Fc part of the bought chimera not given
T2 sequence (looked up): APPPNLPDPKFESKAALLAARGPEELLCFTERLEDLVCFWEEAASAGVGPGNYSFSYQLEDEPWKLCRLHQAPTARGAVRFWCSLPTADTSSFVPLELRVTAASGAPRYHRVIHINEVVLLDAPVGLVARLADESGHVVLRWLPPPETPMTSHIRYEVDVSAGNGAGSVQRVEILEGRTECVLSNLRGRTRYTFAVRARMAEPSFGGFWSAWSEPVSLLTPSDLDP


How the values were obtained:
[1] = target: T3, rHuman IGF-1 sR, CF (R&D Systems Cat#391-GR) (human, UniProt P08069 31-932); experiment: ECL multispot (MSD) assay, spotted antigen; Fab 0.20 (head prints uM)
T3 construct: Bought soluble receptor; The column head prints only 'IGF-1'; also called insulin-like growth factor-1 soluble receptor

[2] = target: T1, rHuman Erythropoietin R/Fc Chimera, CF …; experiment: as above
[3] = target: T4, rHuman Notch-1/Fc Chimera, CF (R&D Systems Cat#3647-TK) (human, UniProt P46531 19-526); experiment: as above
T4 construct: Bought recombinant protein; Fc part of the bought chimera not given

[4] = target: T5, rHuman EGF R/Fc Chimera, CF (R&D Systems Cat#344-ER) (human, UniProt P00533 25-645); experiment: as above
T5 construct: Bought recombinant protein; Fc part of the bought chimera not given

[5] = target: T6, rHuman ErbB2/Fc Chimera, CF (R&D Systems Cat#1129-ER) (human, UniProt P04626 23-652); experiment: as above
T6 construct: Bought recombinant protein; Fc part of the bought chimera not given

[6] = target: T7, Recombinant Human DLL4 (R&D Systems Cat#1506-D4/CF) (human, UniProt Q9NR61 27-524); experiment: as above
T7 construct: Bought recombinant protein; also called delta-like protein 4

[7] = target: T8, rHuman P-Cadherin/Fc Chimera, CF (R&D Systems Cat#861-PC) (human, UniProt P22223 108-654); experiment: as above
T8 construct: Bought recombinant protein; Fc part of the bought chimera not given

[8] = target: T9, rHuman CD44/Fc Chimera, CF (R&D Systems Cat#3660-CD) (human, UniProt P16070 21-220); experiment: as above
T9 construct: Bought recombinant protein; Fc part of the bought chimera not given

[9] = target: T10, rHuman HGF R/c-MET/Fc Chimera, CF (R&D Systems Cat#358-MT/CF) (human, UniProt P08581 25-932); experiment: as above
T10 construct: Bought recombinant protein; also called HGF R/Fc; Fc part of the bought chimera not given
T10 sequence (P08581 25-932, change not shown): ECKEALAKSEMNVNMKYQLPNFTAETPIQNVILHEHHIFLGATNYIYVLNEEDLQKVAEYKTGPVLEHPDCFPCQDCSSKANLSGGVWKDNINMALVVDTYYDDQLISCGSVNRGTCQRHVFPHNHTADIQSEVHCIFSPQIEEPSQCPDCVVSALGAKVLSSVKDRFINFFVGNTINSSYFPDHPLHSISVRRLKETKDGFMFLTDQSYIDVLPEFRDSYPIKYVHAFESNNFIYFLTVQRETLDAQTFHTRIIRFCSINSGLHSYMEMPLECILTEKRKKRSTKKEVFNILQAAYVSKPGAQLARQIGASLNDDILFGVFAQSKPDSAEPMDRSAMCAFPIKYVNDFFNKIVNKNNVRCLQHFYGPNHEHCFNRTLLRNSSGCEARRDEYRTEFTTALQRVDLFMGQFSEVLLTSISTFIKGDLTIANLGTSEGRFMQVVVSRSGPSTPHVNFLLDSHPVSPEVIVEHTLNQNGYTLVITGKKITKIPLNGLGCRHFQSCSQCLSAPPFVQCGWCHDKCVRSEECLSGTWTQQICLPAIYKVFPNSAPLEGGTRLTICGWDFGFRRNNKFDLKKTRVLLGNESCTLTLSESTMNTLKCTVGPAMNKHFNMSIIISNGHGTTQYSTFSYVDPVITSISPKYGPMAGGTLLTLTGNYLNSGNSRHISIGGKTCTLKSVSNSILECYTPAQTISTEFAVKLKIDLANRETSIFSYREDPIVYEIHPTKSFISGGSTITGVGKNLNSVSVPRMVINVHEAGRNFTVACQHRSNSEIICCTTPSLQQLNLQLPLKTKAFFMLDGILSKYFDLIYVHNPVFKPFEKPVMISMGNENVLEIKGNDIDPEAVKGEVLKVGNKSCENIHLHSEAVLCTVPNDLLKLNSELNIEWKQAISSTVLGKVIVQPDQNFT

[10] = target: T3, rHuman IGF-1 sR, CF (R&D Systems …); experiment: ECL multispot (MSD) assay, spotted antigen; Fab 200.00 (head prints uM)
[11] = target: T1, rHuman Erythropoietin R/Fc Chimera, CF …; experiment: as above
[12] = target: T4, rHuman Notch-1/Fc Chimera, CF (R&D …); experiment: as above
[13] = target: T5, rHuman EGF R/Fc Chimera, CF (R&D …); experiment: as above
[14] = target: T6, rHuman ErbB2/Fc Chimera, CF (R&D …); experiment: as above
[15] = target: T8, rHuman P-Cadherin/Fc Chimera, CF (R&D …); experiment: as above
[16] = target: T9, rHuman CD44/Fc Chimera, CF (R&D Systems …); experiment: as above
[17] = target: T10, rHuman HGF R/c-MET/Fc Chimera, CF (R&D …); experiment: as above
[18] = target: T11, rHuman IGF-1 sR, CF (R&D Systems Cat#391-GR) (human, UniProt P08069 31-932); experiment: Multispot ECL (MSD), antigen spotted on plate, Fab 62.5 nM; blank spot 268
T11 construct: Bought recombinant soluble receptor; also called insulin-like growth factor-1 soluble receptor

[19] = target: T2, rHuman Erythropoietin R/Fc Chimera, CF …; experiment: as above
[20] = target: T12, Recombinant Human DLL4 (R&D Systems Cat#1506-D4/CF) (human, UniProt Q9NR61 27-524); experiment: as above
T12 construct: Bought recombinant protein; also called rHuman DLL4; delta-like protein 4

ECL signal/noise ratio [1] | ECL signal/noise ratio [2] | ECL signal/noise ratio [3] | ECL signal/noise ratio [4] | ECL signal/noise ratio [5] | ECL signal/noise ratio [6] | ECL signal/noise ratio [7] | ECL signal/noise ratio [8] | ECL signal/noise ratio [9] | ECL signal/noise ratio [10] | ECL signal/noise ratio [11] | ECL signal/noise ratio [12] | ECL signal/noise ratio [13] | ECL signal/noise ratio [14] | ECL signal/noise ratio [15] | ECL signal/noise ratio [16] | ECL signal/noise ratio [17] | ECL signal [18] | ECL signal [19] | ECL signal [20] | Binder
1.9 | 1.7 | 1.9 | 1.5 | 2.5 | 3 | 1.7 | 1.3 | 2.4 | 1.5 | 1.7 | 1.7 | 1.6 | 1.7 | 2 | 1.4 | 1.7 | – | – | – | Fab VH5-51_IGHD5-18*01>3_IGHJ4*01 G100K/G104T & V3-4_IGLJ1*01 (Fab, V domains shown, Tested as a Fab; The constant parts are the same as for the parent Fab (CH1 with His6/Flag tags, lambda CL); also called KT double mutant; H:KT) VH: EVQLVQSGAEVKKPGESLKISCKGSGYSFTSYWIGWVRQMPGKGLEWMGIIYPGDSDTRYSPSFQGQVTISADKSISTAYLQWSSLKASDTAMYYCARRKYSYTYDYFDYWGQGTLVTVSS VL: QTVVTQEPSFSVSPGGTVTLTCGLSSGSVSTSYYPSWYQQTPGQAPRTLIYSTNTRSSGVPDRFSGSILGNKAALTITGAQADDESDYYCVLYMGSGISYVFGTGTKVTVL
– | – | – | – | – | – | – | – | – | – | – | – | – | – | – | – | – | 491 | 7750 | 715 | Fab VH1-46_IGHD6-13*01_IGHJ4*01 & B3_IGKJ1*01 (Fab, V domains shown, Germline Fab made in E. coli; VH was cloned into Plasmid A (CH1, His6 and Flag tags) and the kappa VL into Plasmid C (kappa CL)) VH: QVQLVQSGAEVKKPGASVKVSCKASGYTFTSYYMHWVRQAPGQGLEWMGIINPSGGSTSYAQKFQGRVTMTRDTSTSTVYMELSSLRSEDTAVYYCAREGYSSSWYDYFDYWGQGTLVTVSS VL: not shown
